Changes are numbered by the printed parent chain.
B1: ヒト型化#23-57-137-1抗体 (H鎖バージョン"a"、L鎖バージョン"j") (antibody, IgG1, V domains shown)
VH: QVQLVESGGGVVQPGRSLRLSCAASGFTFSSYGMSWVRQAPGKGLEWVATISSGGSYTYYPDSVKGRFTISRDNSKNTLYLQMNSLRAEDTAVYYCARQTTMTYFAYWGQGTLVTVSS
VL: QLVLTQSPSASASLGASVKLTCTLSSQHSTYTIEWYQQQPEKGPKYLMDLKQDGSHSTGDGIPDRFSGSSSGAERYLTISSLQSEDEADYYCGVGDTIKEQFVYVFGGGTKLTVLG
notes: Human Cγ1 (IgG1) and human lambda C region; Expressed in COS-7 cells; also called hMBC1HcDNA/pCOS1 + hMBC1Ljλ/pCOS1
B2: ヒト型化#23-57-137-1抗体 (H鎖バージョン"a"、L鎖バージョン"t") (antibody, IgG1, V domains shown)
VH: B1 VH
VL: B1 VL with K45R, L47V, Y91I
notes: Human Cγ1 (IgG1) and human lambda C region; Expressed in COS-7 cells; also called hMBC1HcDNA/pCOS1 + hMBC1Ltλ/pCOS1
B3: ヒト型化#23-57-137-1抗体 (H鎖バージョン"a"、L鎖バージョン"m") (antibody, IgG1, V domains shown)
VH: B1 VH
VL: B1 VL with K45R
notes: Human Cγ1 (IgG1) and human lambda C region; Expressed in COS-7 cells; also called hMBC1HcDNA/pCOS1 + hMBC1Lmλ/pCOS1
B4: ヒト型化#23-57-137-1抗体 (H鎖バージョン"a"、L鎖バージョン"l") (antibody, IgG1, V domains shown)
VH: B1 VH
VL: B1 VL with L47V
notes: Human Cγ1 (IgG1) and human lambda C region; Expressed in COS-7 cells; also called hMBC1HcDNA/pCOS1 + hMBC1Llλ/pCOS1
B5: ヒト型化#23-57-137-1抗体 (H鎖バージョン"a"、L鎖バージョン"q") (antibody, IgG1, V domains shown)
VH: B1 VH
VL: B1 VL with Y91I
notes: Human Cγ1 (IgG1) and human lambda C region; Expressed in COS-7 cells for the ELISA; also made in CHO cells; also called hMBC(q); hMBC1HcDNA + hMBC1Lqλ
B6: ヒト型化H鎖バージョン"a"とキメラL鎖を組み合わせた抗体 (antibody, V domains shown)
VH: B1 VH
VL: QLVLTQSSSASFSLGASAKLTCTLSSQHSTYTIEWYQQQPLKPPKYVMDLKQDGSHSTGDGIPDRFSGSSSGADRYLSISNIQPEDEAMYICGVGDTIKEQFVYVFGGGTKVTVLG
notes: Humanised H chain version a with human Cγ1; The chimeric L chain has the mouse V region
B7: ヒト型化#23-57-137-1抗体 (H鎖バージョン"a"、L鎖バージョン"o") (antibody, IgG1, V domains shown)
VH: B1 VH
VL: B1 VL with K45R, L47V
notes: Human Cγ1 (IgG1) and human lambda C region; Expressed in COS-7 cells; also called hMBC1HcDNA/pCOS1 + hMBC1Loλ/pCOS1

Each binder was assayed against T1, ヒトPTHrP(1-34) (human) (assay: ELISA on plate-coated human PTHrP(1-34)).
T1 construct: Synthetic peptide, bought (Peninsula; ペプチド研究所); Coated on the plate in the ELISA; also called human parathyroid hormone related peptide (1-34)

Binding result, binds:
B1
B2
B3
B4
B5
B6
B7
